Here are results for one substance from publication PMC12775570.

The target in assay [1] is Recombinant human MET extracellular domain (Homo sapiens) (UniProt P08581). The assay can be described thus: high-speed atomic force microscopy.
The target in assay [2] is His-tagged recombinant human EGFR extracellular domain (Homo sapiens) (UniProt P00533). The assay can be described thus: high-speed atomic force microscopy.

In the case of Amivantamab (bispecific antibody), in assay [1], the percent of the observation period bound was determined as 87%. Besides, the percent of the observation period with both EGFR and MET bound to amivantamab in assay [1] and in assay [2] was 78% each time.
